# Assay results published in US20090306338A1 (TRUSTEES OF TUFTS COLLEGE, published 2009).
# Square brackets hold non-standard residues; d marks the D form. Ends that are not written are not given here. Asp(3,3-Me2) = CC(C)(C(=O)O)[C@H](N)C(=O)O
# Assays:
# [1] = target: human GLP-1 receptor (human) (UniProt P43220); experiment: cell-based or functional assay
# [2] = target: human GLP-1 receptor (human) (UniProt P43220)
# human GLP-1 receptor [3] = target: T1, human GLP-1 receptor (human, UniProt P43220 24-463); experiment: cell-based or functional assay
# human GLP-1 receptor [4] = target: T1, human GLP-1 receptor
# human GLP-1 receptor [5] = target: T1, human GLP-1 receptor; experiment: cell-based or functional assay; remark: listed apart in the source
# Sequence of human GLP-1 receptor (human) (P43220 24-463): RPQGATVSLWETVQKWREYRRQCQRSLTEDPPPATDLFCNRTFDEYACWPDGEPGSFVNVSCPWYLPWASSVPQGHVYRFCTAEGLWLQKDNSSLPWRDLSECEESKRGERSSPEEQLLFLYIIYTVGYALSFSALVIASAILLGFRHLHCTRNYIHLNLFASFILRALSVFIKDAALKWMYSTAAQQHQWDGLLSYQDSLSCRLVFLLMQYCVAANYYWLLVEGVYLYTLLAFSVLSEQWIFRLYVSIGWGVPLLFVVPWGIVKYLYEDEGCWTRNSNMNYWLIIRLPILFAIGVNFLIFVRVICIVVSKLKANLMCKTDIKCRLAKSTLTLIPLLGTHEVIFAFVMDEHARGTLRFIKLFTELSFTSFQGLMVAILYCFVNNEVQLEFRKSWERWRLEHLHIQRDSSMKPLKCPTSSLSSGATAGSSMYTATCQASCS
molecule,measurement,setting,value
Exendin-4 (peptide),EC50 for receptor activation (cAMP),[1],0.1 to 0.5 nM
Exendin-4 (peptide; other documents disagree on this pair),IC50,[2],0.4 nM
"HA[Asp(3,3-Me2)]GTFTSDVSSYLEGQAAKEFIAWLVKGRPSSGAPPPS (ends and bridges not checked) [P1732]",EC50 for receptor activation (cAMP),human GLP-1 receptor [3],0.4 to 1.1 nM
same,IC50,human GLP-1 receptor [4],2.5 nM
same,"EC50 (nM), cAMP production in COS-7 cells expressing the human GLP-1 receptor",human GLP-1 receptor [5],0.64 nM
